According to patent US20250382354A1:

Experiments:
Test in all cases: peptide ELISA
[1] = target: HKU4 HR2 peptide (HKU4), A3EX94
[2] = target: SARS-CoV-2 HR2 peptide (SARS-CoV-2), P0DTC2
[3] = target: HKU5 HR2 peptide (HKU5), A3EXD0
MHV HR2 peptide (MHV) = target: MHV HR2 peptide (MHV)
[4] = target: MERS FP peptide (MERS), K9N5Q8
[5] = target: OC43 FP peptide (OC43), P36334
[6] = target: SARS-CoV FP peptide (SARS-CoV), P59594
[7] = target: SARS-CoV-2 FP peptide (SARS-CoV-2)
HKU1 FP peptide (HKU1) = target: HKU1 FP peptide (HKU1)
229E FP peptide (229E) = target: 229E FP peptide (229E)
[8] = target: NL63 FP peptide (NL63), Q6Q1S2
SADS HR2 peptide (SADS) = target: SADS HR2 peptide (SADS)

B1: hr2.018 (antibody, V domains shown)
VH: EVQLVESGGGLVKPGGSLRLSCVASGSSVIDAWMNWVRQAPGKGLEWVGRIKSKTNGATTDYAAPVKGRFTISRDDSKNLSYLQMNSLKTEDTGIYYCTTSPLPNFDYWGRGTLVTVSS
VL: not shown
[1]
  EC50: 0.0417 µg/mL
[2]
  EC50: 0.0336 µg/mL

B2: hr2.019 (antibody, V domains shown)
VH: EVQLVESGGGLVKPGGSLRLSCAASGSSVIDVWMNWVRQAPGKGLEWVGRIKTKASGAATDYGAPVKGRFTISRDDSKNLSYLQMNSLRAEDTGIYYCTTSPLPNFDYWGRGTLVTVSS
VL: DIVMTQSPDFLAVSLGETATINCRSSQSVFYFANNKNYLAWYQQKPGQPPKLLIYWASKRESGVPDRFSGSGSGTDFTLTISSLQAEDVATYYCQQYSSPAITFGPGTKVDIK
[3]
  EC50: 0.0505 µg/mL
[1]
  EC50: 0.0154 µg/mL
[2]
  EC50: 0.0267 µg/mL

B3: hr2.021 (antibody, V domains shown)
VH: QVQLVQSGAEVKKPGASVKVSCKASEAIFSGSYLHWVRQAPGQGLEWMGIITPSGDKTFYAQRFQGRLTMTRDTSTNTLHMHLSGLNSEDTAMYYCARQADKGGWDYWGQGTLVTVSS
VL: EIVLTQSPGTLSLSPGERATLSCRASQSVTSNYVAWYQQKPGQAPRLLIYGASTRATGIPDRFSGGGSGTDFTLTITRLEPEDFAVYYCQQYGSSPPTFTFGPGTKVDIK
[3]
  EC50: 0.0551 µg/mL
MHV HR2 peptide (MHV)
  EC50: 0.0333 µg/mL
[1]
  EC50: 0.021 µg/mL
[2]
  EC50: 0.0242 µg/mL

B4: hr2.024 (antibody, V domains shown)
VH: QVQLVQSGAEVKKPGASVKVSCKASEDIFTDSYLHWVRQAPGQGLEWMGIITPSGDKTFYAQQFQGRLTMTRDPSTNTLYMFLSGLRSDDTAMYFCARQAEKGGWDYWGHGTLVTVSS
VL: EIVLTQSPGTLSLSPGQRATLSCRSSQTITSNYLAWYQQRPGQAPRLLIYGASIRATGIPDRFSGSGSGTDFTLTISRLEPEDFAVYYCQQYGSSPPTFIFGPGTKVDIK
[3]
  EC50: 0.048 µg/mL
MHV HR2 peptide (MHV)
  EC50: 0.0259 µg/mL
[1]
  EC50: 0.0184 µg/mL
[2]
  EC50: 0.106 µg/mL

B5: hr2.023 (antibody, V domains shown)
VH: QVQLVQSGAEVKKPGASVKVSCRASENIFSDSYLHWVRQAPGQGLEWMGIITPSGDKTFYAQQFQGRLTMTRDTPTNTLHMDLRGLTSADTAIYYCARQATKGGWDYWGQGTLVTVSS
VL: EIVLTQSPGTLSLSPGESATLSCRASQSVTRNYLAWYQQQPGQAPRLLIYGASNRATGVPDRFSGSGSGTDFTLTISRLEPEDFAVYYCQQYGSSPPTFIFGPGTKVDIK
[3]
  EC50: 0.0422 µg/mL
MHV HR2 peptide (MHV)
  EC50: 0.0106 µg/mL
[1]
  EC50: 0.0149 µg/mL
[2]
  EC50: 0.0175 µg/mL

B6: fp.011 (antibody, V domains shown)
VH: EVQLLESGGGLVQPGGSLRLSCAGSGFTFNNYAMTWVRQAPGRGLEWVSAISGSGGSSHYADSVKGRFTITRDNSKNTLYLQMNSLRAEDTAVYYCAFIDYYSGWSYYYGLDVWGQGTTVTVSS
VL: EIVLTQSPATLSLSPGERATLSCRASQGVRTYVAWYQQKPGQAPRLLIYDASNRATGIPARFSGSGSGTDFTLTISSLEPEDFAVYYCQQRYNWPLCSFGQGTKLEIK
[4]
  EC50: 0.0363 µg/mL
[5]
  EC50: 0.0218 µg/mL
[6]
  EC50: 0.023 µg/mL
[7]
  EC50: 0.0363 µg/mL
HKU1 FP peptide (HKU1)
  EC50: 0.0197 µg/mL
229E FP peptide (229E)
  EC50: 0.0503 µg/mL
[8]
  EC50: 0.0261 µg/mL

B7: fp.001 (antibody, V domains shown)
VH: VQLVESGGGVVQPGRPLRLSCSGSGFIFSNYAMHWVRQAPGKGLEWVAIISFDARNKRYADSVEGRFTISRDNSKNILYLQMNSLRLEDSAVYFCARDLFLSDYDNGVYDPTRGGFDYWGQGTLVTVSS
VL: EIVMTQSPATLSLSPGERATLSCRASQSVNNRLAWYQQKLGQPPRLLISGASTRATGIPARFTGSGSGTEFTLTISSLQSEDFAVYYCQQYHDWPLLSFGGGTKVEIK
[4]
  EC50: 0.0369 µg/mL
[5]
  EC50: 0.0175 µg/mL
[6]
  EC50: 0.0289 µg/mL
[7]
  EC50: 0.0249 µg/mL
HKU1 FP peptide (HKU1)
  EC50: 0.0298 µg/mL
229E FP peptide (229E)
  EC50: 0.0232 µg/mL
[8]
  EC50: 0.0214 µg/mL

B8: hr2.020 (antibody, V domains shown)
VH: EVQLVQSGAEVKKPGESLKISCKGSGYRFASHWIGWVRQMPGKGLQWMGIIYPGDSDTKYSPSFQGQVTISADKSINTVYLHWTSLKASDTAVYYCARRPPHLDGGDSPIRFDHWGQGTLVTVSS
VL: QSVLTQPPSASGTPGQRVTISCSGSRSNIGSNDVYWYQQFPGTAPKLLIYRNNQRPSGVPDRFSGSKSGTSASLAISGLRSEDEADYYCATWDDRLTGVFGGGTKLTVV
[3]
  EC50: 0.0631 µg/mL
MHV HR2 peptide (MHV)
  EC50: 0.0285 µg/mL
[1]
  EC50: 0.0352 µg/mL
[2]
  EC50: 0.0353 µg/mL

B9: hr2.086 (antibody, V domains shown)
VH: EVQLLESGGGLVQPGGYLRLSCAASGFTFSSYAMSWVRQAPGKGLEWVSVISGGGGSAYYADSVKGRFTISRDNSKNTLYLQMNSLRAEDTAVYYCAKIGMILVFDYWGQGTLVTVSS
VL: EIVLTQSPGTLSLSPGERATLSCRASQSVSNNYLAWYQQKPGQAPRLLISGASSRATGIPDRFSGSGSGTDFTLTISRLEPEDFAVYYCQQYGSSPPTFGQGTKVEIK
[1]
  EC50: 0.0269 µg/mL

B10: fp.010 (antibody, V domains shown)
VH: EVQLLESGGGLVQPGGSLRLSCAASGFTFSTYAMNWVRQAPGKGLEWVSAISSSGLSTQYADSVRGRFTISRDTSKNTLYLHMNSLRAGDTAVYYCAKVEYSGYDPRGPFDSWGQGTLVTVSS
VL: DIQMTQSPSTLSASVGDRVTITCRASQSISGWLAWYQQKPGRAPKLLIYKASSLERGVPSRFSGSGSGTEFTLTISSLQPDDFATYYCQEYSSYPLCTFGQGTKLEIK
[4]
  EC50: 0.0593 µg/mL
[5]
  EC50: 0.0421 µg/mL
[7]
  EC50: 0.119 µg/mL
HKU1 FP peptide (HKU1)
  EC50: 0.0372 µg/mL
229E FP peptide (229E)
  EC50: 0.135 µg/mL
[8]
  EC50: 0.0451 µg/mL

B11: hr2.014 (antibody, V domains shown)
VH: QVQLVQSGAEVKKPGASVKVSCKASGYTFTTYAVHWLRQVPGQRPEWIGWINAANGNTKYSEKFQGRVTITRDTSASTAYMDLRSLRSEDTAVYYCARLLVVRDDPYYYGMDVWGQGTTVTVSS
VL: not shown
SADS HR2 peptide (SADS)
  EC50: 0.705 µg/mL
[3]
  EC50: 0.0312 µg/mL
[1]
  EC50: 0.0457 µg/mL
[2]
  EC50: 0.0357 µg/mL

B12: hr2.090 (antibody, V domains shown)
VH: EVQLLESGGGLVQPGGSLRLSCAASGVTFSRYAMSWVRQAPGKGLEWVSTISGGGGGTYYADSVKGRFTISRDNSKNTLYLQMNSLRAEDTAVYYCATLLTVPGPYYFEYWGQGTLVTVSS
VL: EIVLTQSPGTLSLSPGERATLSCRASQSVSSSYLAWYQQKPGQAPRLLIYGASSRATGIPDRFSGSGSGTDFTLTISRLESEDFAVYYCQHSRFTFGPGTRVDIK
MHV HR2 peptide (MHV)
  EC50: 0.761 µg/mL
[1]
  EC50: 0.425 µg/mL
[2]
  EC50: 0.085 µg/mL

B13: fp.008 (antibody, V domains shown)
VH: VQLVESGGGVVQPGRSLRLSCRASGFRFNNYAMHWVRQAPGKGLEWVAIISYEARNEKYAASVKGRFSISRDNAKNTLYLQMNSLRPEDTAIYYCARDVFLSDYDQSGYDVTRGGFDYWGQGTLVTVSS
VL: EIVMTQSPATLSVSPGESATLSCRASQSVSSSLAWYQHKFGQAPRLLIYGASTRATGIPDRFSGSGSGMEFTLTISSLQSEDVAIYYCQQYGDWPLVTFGGGTKVEIK
[4]
  EC50: 0.0361 µg/mL
[5]
  EC50: 0.0235 µg/mL
[6]
  EC50: 0.0267 µg/mL
[7]
  EC50: 0.0366 µg/mL
HKU1 FP peptide (HKU1)
  EC50: 0.0219 µg/mL
229E FP peptide (229E)
  EC50: 0.019 µg/mL
[8]
  EC50: 0.0226 µg/mL

B14: hr2.017 (antibody, V domains shown)
VH: EVQLVESGGGLVQPGGSLRLSCAVSGFAFSSSWMHWIRQAPGRGLVWVSRINRDGSTTDYADSVKGRFTISRDNAKATLYLQMNSLRAEDTAVYYCATMGFDYWGQGALVTVSS
VL: DIVMTQSPDSLAVSLGERATINCKSSQNVLYSSNNKNHLSWYQQKPGQPPKLLIYWASTRKSGVPDRFSGSGSGTDFTLTINSLQAEDVAVYYCQQYFSTPNTFGQGTKLEIK
[3]
  EC50: 0.0249 µg/mL
MHV HR2 peptide (MHV)
  EC50: 0.02 µg/mL
[1]
  EC50: 0.0203 µg/mL
[2]
  EC50: 0.0145 µg/mL
